Residue numbers refer to the chain shown, from its start. Where two headings read alike, the source gives them in different places. Oligonucleotides are written 5' to 3', each unit as a sugar letter and its base; * is a phosphorothioate linkage, no mark a phosphodiester; rarer units and linkages stand in square brackets, end groups in braces. Plain capitals give the bases only. [invdT] = inverted (3'-3') thymidine; d = 2'-deoxy (DNA); m = 2'-O-methyl; r = 2'-OH (RNA); f = 2'-fluoro
B1: AMX206.D8: rRdY aptamer clone (nucleic acid)
chain: rGrGrArGdCrGdCrAdCdTdCrArGdCdCrAdCrGrAdCrGrGdTrGrAdTrGrGrAdTdTrArGdCrGdCrGrGdTrGrGrAdTdCdTdTrArAdCrGdTrGdCrGrArGdTdTdTdCrGrAdCdCdTdCdTdCdTrGdCdTrArGdC
B2: AMX205.H10: rRdY aptamer clone (nucleic acid)
chain: rGrGrArGdCrGdCrAdCdTdCrArGdCdCrAdCdTrGdTdTrGdCdCrGrAdCrGrGdTrGrAdTrGdTrAdTdTrArAdCrGdCrGrGrGdCrArAdCrGdTdTrGrGdTrGdTdTdTdCrGrAdCdCdTdCdTdCdTrGdCdTrArGdC
B3: AMX203.G9: rRdY aptamer clone (nucleic acid)
chain: rGrGrArGdCrGdCrAdCdTdCrArGdCdCrAdCrGrGrGrGdTrGrGrGdTrArGrAdCrGrGdCrGrGrGdTrAdTrGdTrGrGdCdTrGrGdTrGdTdCrGrArArGrGrGdTdTdTdCrGrAdCdCdTdCdTdCdTrGdCdTrArGdC
B4: AMX237.G6: DNA SELEX 2 aptamer clone (nucleic acid)
DNA: CTACCTACGATCTGACTAGCGTGCAGTGCCTATTCCAGGCCGTGCGGTGCCTCCGTCACGCTTACTCTCATGTAGTTCC
modifications: DNA, backbone and methylation of C not given here
notes: DNA SELEX 2 aptamer clone
B5: AMX205.F7: rRdY aptamer clone (nucleic acid)
chain: rGrGrArGdCrGdCrAdCdTdCrArGdCdCrAdCrAdCrGrAdCrAdTdTrGrGdCrGrGrGdTdTrGdTrArAdTdTrAdCdCrAdCrGdCrAdTrGrGdCdTrGdTdTdTrGdTdTdTdCrGrAdCdCdTdCdTdCdTrGdCdTrArGdC
B6: AMX201.C8: rRfY aptamer clone (nucleic acid)
chain: rGrGrArGfCrGfCrAfCfUfCrArGfCfCrAfCfCfCfUfCrGfCrArArGfCrAfUfUfUfUrArArGrArAfUrGrAfCfUfUrGfUrGfCfCrGfCfUrGrGfCfUrGfUfUfUfUfCrGrAfCfCfUfCfUfCfUrGfCfUrArGfC
B7: AMX237.A2: DNA SELEX 2 aptamer clone (nucleic acid)
chain: CTACCTACGATCTGACTAGCTCCAGTGTTTCATCCAATAACCGTGCGGTGCCTCCGTGAGCTTACTCTCATGTAGTTCC
modifications: DNA, backbone and methylation of C not given here
notes: DNA SELEX 2 aptamer clone
B8: AMX237.A11: DNA SELEX 2 aptamer clone (nucleic acid)
chain: B7 chain with C31T
modifications: DNA, backbone and methylation of C not given here
notes: DNA SELEX 2 aptamer clone
B9: AMX238.D12: DNA SELEX 2 aptamer clone (nucleic acid)
DNA: B7 chain with C34T
modifications: DNA, backbone and methylation of C not given here
notes: DNA SELEX 2 aptamer clone
B10: AMX237.B11: DNA SELEX 2 aptamer clone (nucleic acid)
DNA: B7 chain with C31T, C35T
modifications: DNA, backbone and methylation of C not given here
notes: DNA SELEX 2 aptamer clone
B11: AMX238.G5: DNA SELEX 2 aptamer clone (nucleic acid)
DNA: B7 chain with C31T, C34T
modifications: DNA, backbone and methylation of C not given here
notes: DNA SELEX 2 aptamer clone

Key:
Type in all cases: cell-based
[1] = tested on: botrocetin induced platelet aggregation; experiment: Inhibition of botrocetin induced platelet aggregation (BIPA) in human PRP; conditions: for IC90: human platelet rich plasma; for ≦200 nM aptamer gives >90% blocking in BIPA at 6 minutes: botrocetin induced platelet aggregation
Procedure, shortened: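 Fresh human platelet-rich plasma, prewarmed at 37 degrees C, was preincubated one minute with aptamer (zero, 1 nM to 1000 nM) before botrocetin at a per-donor titrated aggregating concentration. Aggregation was followed as light transmittance; the value is the concentration blocking aggregation by 90% or greater after 6 minutes.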

[2] = tested on: rabbit vWF domain A1 binding to lyophilized platelets; experiment: Rabbit von Willebrand Factor domain A1 platelet binding assay (FACS)
rabbit vWF domain A1 binding to lyophilized platelets, sequence (as listed by the source): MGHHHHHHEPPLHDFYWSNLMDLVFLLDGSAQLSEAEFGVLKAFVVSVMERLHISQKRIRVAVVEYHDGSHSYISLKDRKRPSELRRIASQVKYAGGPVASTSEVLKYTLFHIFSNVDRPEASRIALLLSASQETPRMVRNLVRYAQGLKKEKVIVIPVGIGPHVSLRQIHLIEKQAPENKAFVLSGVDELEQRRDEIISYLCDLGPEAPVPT
Procedure, shortened: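 Aptamers (0.1–1000 nM) preincubated with 4 nM His-tagged rabbit vWF A1 in PBS/0.5% BSA, then lyophilized human platelets plus botrocetin added, 15 min at 37 °C. Bound A1 detected by anti-His-biotin and PE secondary via flow cytometry (median fluorescence, background-subtracted); IC50 fitted from percent inhibition.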

[3] = tested on: full length human vWF binding to lyophilized platelets; experiment: Full length human von Willebrand Factor platelet binding assay (FACS); conditions: for Inhibition of full length hVWF binding in FACS assay, IC50 range: both bounds in nM
Procedure, shortened: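 Aptamer titrations (0.1–1000 nM) pre-incubated with 5 nM full-length human vWF, then added to lyophilized platelets plus botrocetin for 15 min at 37 °C in PBS/0.5% BSA. Bound vWF detected by anti-vWF then FITC secondary antibody via flow cytometry MFI; % inhibition versus no-aptamer binding fitted for IC50.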

[4] = read-out: FACS IC50 vs rabbit A1 domain
[5] = read-out: FACS IC50 vs human full length vWF
[6] = 4 nM rabbit A1 vWF, lyophilized platelets, botrocetin, both bounds in nM
[7] = 5 nM full length human vWF, lyophilized platelets, botrocetin
[8] = 4 nM rabbit A1 vWF, lyophilized platelets, botrocetin, read-out: Inhibition of rabbit VWF A1 domain binding in FACS assay, Average IC50
[9] = 5 nM full length human vWF, lyophilized platelets, botrocetin, read-out: Inhibition of full length hVWF binding in FACS assay, Average IC50
[10] = 5 nM full length human vWF, lyophilized platelets, botrocetin, units in the cell: lower bound pM, upper bound nM, read-out: Inhibition of full length hVWF binding in FACS assay, IC50 range
[11] = 4 nM rabbit A1 vWF, lyophilized platelets, botrocetin, both bounds in nM, read-out: Inhibition of rabbit VWF A1 domain binding in FACS assay, IC50 range

Molecule	IC50 [3, 9] [pM]	IC50 [3, 10] [pM]	IC50 [2, 11] [pM]	also measured
PEG20K-NH2-mGmCmGmUdGdCdAmGmUmGmCmCmUmUmCmGmGmCdCmG-s-TmGdCdGdGTmGmCdCmUdCdCmGmUdCmAmCmGmC-3T [ARC1779]				IC90 [1]: ~100 nM
dGdGdCdGTdGdCdAdGTdGdCdCTTdCdGdGdCdCdGTdGdCdGdGTdGdCdCTdCdCdGTdCdAdCdGdCdC-3T (DNA GGCGTGCAGTGCCTTCGGCCGTGCGGTGCCTCCGTCACGCC; DNA, [invdT] at 3' end, backbone and methylation of C not given here) [ARC1172, ARC1115 with 3'-inverted dT]				IC50 [2, 4]: 2000 pM; IC90 [1]: ~200 nM; IC50 [3, 5]: 2000 pM
mGmCmGmUdGdCdAmGmUmGmCmCmUmUmCmGmGmCdCmG-s-TmGdCdGdGTmGmCdCmUdCdCmGmUdCmAmCmGmC-3T (GCGUGCAGUGCCUUCGGCCGTGCGGTGCCUCCGUCACGC; sugars from the 5' end mmmmdddmmmmmmmmmmmdmdmddddmmdmddmmdmmmm, [invdT] at 3' end, backbone not given here) [ARC1368]				IC50 [2, 4]: 4000 pM; IC90 [1]: ~200 nM; inhibition of botrocetin induced platelet aggregation ([1]; in words, human PRP): potency comparable to ReoPrO™; IC50 [3, 5]: 2000 pM
B1				Inhibition of rabbit VWF A1 domain binding in FACS assay, IC50 range [2, 6]: no activity; Inhibition of full length hVWF binding in FACS assay, IC50 range [3, 7]: no activity
B2				Inhibition of rabbit VWF A1 domain binding in FACS assay, IC50 range [2, 6]: no activity; Inhibition of full length hVWF binding in FACS assay, IC50 range [3, 7]: no activity
B3	4700			IC50 [2, 8]: 592 pM; IC50 ([2]; 4 nM rabbit A1 vWF, lyophilized platelets, botrocetin, units in the cell: lower bound pM, upper bound nM, read-out: Inhibition of rabbit VWF A1 domain binding in FACS assay, IC50 range): 152 to 1600 pM; ≦200 nM aptamer gives >90% blocking in BIPA at 6 minutes [1]: yes
B4	1900			≦200 nM aptamer gives >90% blocking in BIPA at 6 minutes [1]: yes
B5	818	321 to 1600		IC50 [2, 8]: 4700 pM; ≦200 nM aptamer gives >90% blocking in BIPA at 6 minutes [1]: yes
B6	528	24 to 1800		IC50 [2, 8]: 682 pM; ≦200 nM aptamer gives >90% blocking in BIPA at 6 minutes [1]: yes
B7	3500	815 to 7300	7000	
B8	2200	466 to 5600	4700	
B9	2000	684 to 3400	7200	
B10	2500	151 to 4800	5700	
B11	1100	273 to 2600	5500	

From patent US7998940B2, “Aptamers to von Willebrand factor and their use as thrombotic disease therapeutics” (Archemix Corp., priority 2004, dated 2011)
